± gives the standard deviation of the averaged measurements.
Tests used:
[1] = test system: hTERT-HMEC; test: percentage of EdU-negative (G0-arrested) nuclei per well, 72 h; higher = more G0 arrest; conditions: reference: sequence is the full UniProt precursor, the tested protein was the secreted form or ectodomain
[2] = test system: MCF7; test: as above; conditions: reference: sequence is the full UniProt precursor, the tested protein was the secreted form or ectodomain
[3] = protein concentration 0.03125 µM
[4] = protein concentration 0.3125 µM
[5] = protein concentration 0.00775 µM
[6] = protein concentration 0.0775 µM
[7] = protein concentration 0.022665 µM
[8] = protein concentration 0.22665 µM
[9] = protein concentration 0.00742857 µM
[10] = protein concentration 0.0225 µM
[11] = protein concentration 0.0742857 µM
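Note: secreted proteins added to cultured cells, EdU pulse at the end, nuclei found by Hoechst imaging, EdU status from nuclear versus surrounding ring intensity ratio, PBS as neutral control.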

Q: What does the source list for “MRRMWATQGLAVALALSVLPGSRALRPGDCEVCISYLGRFYQDLKDRDVTFSPATIENELIKFCREARGKENRLCYYIGATDDAATKIINEVSKPLAHHIPVEKICEKLKKKDSQICELKYDKQIDLSTVDLKKLRVKELKKILDDWGETCKGCAEKSDYIRKINELMPKYAPKAASARTDL”?
A: percentage of EdU-negative [1, 3]: 5.21 ± 0.51%; percentage of EdU-negative [1, 4]: 6.6 ± 0.2%; percentage of EdU-negative [2, 3]: 25.9 ± 1.2%; percentage of EdU-negative [2, 4]: 24.8 ± 3.6%

Q: With “MRRPAAVPLLLLLCFGSQRAKAATACGRPRMLNRMVGGQDTQEGEWPWQVSIQRNGSHFCGGSLIAEQWVLTAAHCFRNTSETSLYQVLLGARQLVQPGPHAMYARVRQVESNPLYQGTASSADVALVELEAPVPFTNYILPVCLPDPSVIFETGMNCWVTGWGSPSEEDLLPEPRILQKLAVPIIDTPKCNLLYSKDTEFGYQPKTIKNDMLCAGFEEGKKDACKGDSGGPLVCLVGQSWLQAGVISWGEGCARQNRPGVYIRVTAHHNWIHRIIPKLQFQPARLGGQK [Q9BQR3]” as the sequence, how does the “percentage of EdU-negative” value [1, 5] read?
A: 4.44 ± 0.22%

Q: What about the “percentage of EdU-negative” value [1, 6] of the same sequence?
A: 6.65 ± 0.73%

Q: What about the “percentage of EdU-negative” value [2, 5] of the same sequence?
A: 25.18 ± 0.16%

Q: And the “percentage of EdU-negative” value [2, 6]?
A: 26.7 ± 2.6%

Q: Which “percentage of EdU-negative” value ([1]; protein concentration 0.01 µM) does the source give for “MRRRRAGGRTMVERASKFVLVVAGSVCFMLILYQYAGPGLSLGAPGGRAPPDDLDLFPTPDPHYEKKYYFPVRELERSLRFDMKGDDVIVFLHIQKTGGTTFGRHLVQNVRLEVPCDCRPGQKKCTCYRPNRRETWLFSRFSTGWSCGLHADWTELTNCVPGVLDRRDSAALRTPRKFYYITLLRDPVSRYLSEWRHVQRGATWKTSLHMCDGRTPTPEELPPCYEGTDWSGCTLQEFMDCPYNLANNRQVRMLADLSLVGCYNLSFIPEGKRAQLLLESAKKNLRGMAFFGLTEFQRKTQYLFERTFNLKFIRPFMQYNSTRAGGVEVDEDTIRRIEELNDLDMQLYDYAKDLFQQRYQYKRQLERREQRLRSREERLLHRAKEALPREDADEPGRVPTEDYMSHIIEKW” here?
A: 5.25 ± 0.85%

Q: What about the “percentage of EdU-negative” value ([1]; protein concentration 0.1 µM) of the same sequence?
A: 31.7 ± 5.8%

Q: And the “percentage of EdU-negative” value ([2]; protein concentration 0.01 µM)?
A: 25.6 ± 0.82%

Q: And the “percentage of EdU-negative” value ([2]; protein concentration 0.1 µM)?
A: 28.9 ± 4%

Q: Which “percentage of EdU-negative” value [1, 7] does the source give for “MRSAAVLALLLCAGQVTALPVNSPMNKGDTEVMKCIVEVISDTLSKPSPMPVSQECFETLRGDERILSILRHQNLLKELQDLALQGAKERAHQQKKHSGFEDELSEVLENQSSQAELKEAVEEPSSKDVMEKREDSKEAEKSGEATDGARPQALPEPMQESKAEGNNQAPGEEEEEEEEATNTHPPASLPSQKYPGPQAEGDSEGLSQGLVDREKGLSAEPGWQAKREEEEEEEEEAEAGEEAVPEEEGPTVVLNPHPSLGYKEIRKGESRSEALAVDGAGKPGAEEAQDPEGKGEQEHSQQKEEEEEMAVVPQGLFRGGKSGELEQEEERLSKEWEDSKRWSKMDQLAKELTAEKRLEGQEEEEDNRDSSMKLSFRARAYGFRGPGPQLRRGWRPSSREDSLEAGLPLQVRGYPEEKKEEEGSANRRPEDQELESLSAIEAELEKVAHQLQALRRG” here?
A: 4.31 ± 0.57%

Q: And the “percentage of EdU-negative” value [1, 3]?
A: 5.57 ± 0.62%

Q: What about the “percentage of EdU-negative” value [1, 8] of the same sequence?
A: 7.26 ± 0.12%

Q: What about the “percentage of EdU-negative” value [1, 4] of the same sequence?
A: 5.39 ± 0.89%

Q: And the “percentage of EdU-negative” value [2, 7]?
A: 24.2 ± 2.3%

Q: What about the “percentage of EdU-negative” value [2, 3] of the same sequence?
A: 26.2 ± 1.6%

Q: And the “percentage of EdU-negative” value [2, 8]?
A: 24.9 ± 1.5%

Q: And the “percentage of EdU-negative” value [2, 4]?
A: 25.6 ± 1.5%

Q: With “MRSLGALLLLLSACLAVSAGPVPTPPDNIQVQENFNISRIYGKWYNLAIGSTCPWLKKIMDRMTVSTLVLGEGATEAEISMTSTRWRKGVCEETSGAYEKTDTDGKFLYHKSKWNITMESYVVHTNYDEYAIFLTKKFSRHHGPTITAKLYGRAPQLRETLLQDFRVVAQGVGIPEDSIFTMADRGECVPGEQEPEPILIPRVRRAVLPQEEEGSGGGQLVTEVTKKEDSCQLGYSAGPCMGMTSRYFYNGTSMACETFQYGGCMGNGNNFVTEKECLQTCRTVAACNLPIVRGPCRAFIQLWAFDAVKGKCVLFPYGGCQGNGNKFYSEKECREYCGVPGDGDEELLRFSN” as the sequence, how does the “percentage of EdU-negative” value [1, 9] read?
A: 4.92 ± 0.19%

Q: And the “percentage of EdU-negative” value [1, 10]?
A: 5.59 ± 1.2%

Q: And the “percentage of EdU-negative” value [1, 11]?
A: 7.02 ± 1.1%

Q: And the “percentage of EdU-negative” value ([1]; protein concentration 0.225 µM)?
A: 5.52 ± 0.57%

Q: What about the “percentage of EdU-negative” value [2, 9] of the same sequence?
A: 27.22 ± 0.12%

Q: And the “percentage of EdU-negative” value [2, 10]?
A: 23.9 ± 0.98%

Q: And the “percentage of EdU-negative” value [2, 11]?
A: 26 ± 2.5%

Q: And the “percentage of EdU-negative” value ([2]; protein concentration 0.225 µM)?
A: 25.2 ± 1.6%

Q: Which results are given for “MRSLLLLSAFCLLEAALAAEVKKPAAAAAPGTAEKLSPKAATLAERSAGLAFSLYQAMAKDQAVENILVSPVVVASSLGLVSLGGKATTASQAKAVLSAEQLRDEEVHAGLGELLRSLSNSTARNVTWKLGSRLYGPSSVSFADDFVRSSKQHYNCEHSKINFRDKRSALQSINEWAAQTTDGKLPEVTKDVERTDGALLVNAMFFKPHWDEKFHHKMVDNRGFMVTRSYTVGVMMMHRTGLYNYYDDEKEKLQIVEMPLAHKLSSLIILMPHHVEPLERLEKLLTKEQLKIWMGKMQKKAVAISLPKGVVEVTHDLQKHLAGLGLTEAIDKNKADLSRMSGKKDLYLASVFHATAFELDTDGNPFDQDIYGREELRSPKLFYADHPFIFLVRDTQSGSLLFIGRLVRPKGDKMRDEL”?
A: percentage of EdU-negative [1, 3]: 4.8 ± 0.84%; percentage of EdU-negative [1, 4]: 7.55 ± 1%; percentage of EdU-negative [2, 3]: 26.6 ± 2.3%; percentage of EdU-negative [2, 4]: 27.2 ± 1.1%

— the supplement of paper PMC11316812
